Laboratory results: patent US6852907

Biological target: T1, BV1 movement protein, untagged (tomato leaf curl virus (New Delhi)) (UniProt A0A143TU21)
T1 sequence: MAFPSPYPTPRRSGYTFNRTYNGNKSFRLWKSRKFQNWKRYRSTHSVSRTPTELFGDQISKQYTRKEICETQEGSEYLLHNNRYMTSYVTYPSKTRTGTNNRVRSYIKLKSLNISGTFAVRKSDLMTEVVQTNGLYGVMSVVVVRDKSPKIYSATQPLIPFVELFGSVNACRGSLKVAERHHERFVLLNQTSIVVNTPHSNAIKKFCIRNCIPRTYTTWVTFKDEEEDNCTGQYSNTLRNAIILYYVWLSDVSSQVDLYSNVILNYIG
Assay: cell_activity
Conditions: ssDNA accumulation in BY2 protoplasts (indirect), range 50-121

## ToLCV-Nde A component viral ssDNA (CP-replacement constructs)
  binding signal (% of wild type ssDNA): 86
